The results in this text go back to patent publication US20210403584A1 (ARMAGEN, published 2021).

Assay [1] concerns the target human insulin receptor extracellular domain (HIR ECD) (human) (UniProt P06213). The experiment in a line: ELISA, HIR ECD plated; against the HIR Ab. On the technique in general: ELISA stands for enzyme-linked immunosorbent assay.
The target in assay [2] is T1, human insulin receptor extracellular domain (HIR ECD) (human, UniProt P06213 28-956, limits assumed).
T1 construct: extracellular domain
Description: ELISA, recombinant HIR ECD plated, secondary antibody and alkaline phosphatase detection. Here is the method: The potency of the CHO-derived fusion protein was assessed with the HIR ECD binding ELISA. The affinity of the fusion protein for the HIR extracellular domain (ECD) was determined with an ELISA. Recombinant HIR ECD was plated on Nunc-Maxisorb 96 well dishes and the binding of the HIR Ab, or the HIR Ab-GLB1 fusion protein, to the HIR ECD was detected with a secondary antibody, followed by binding with an alkaline phosphatase detector reagent. […] The MW of the HIR Ab is 150 kDa, and the MW of the HIR Ab-fusion protein is 334 kDa.

Turning to “GUSB-HIR Ab fusion protein (GUSB fused to the amino terminus of the HIR Ab heavy chain) (from UniProt P08236 23-633)”, the binding activity lost in assay [1] is over 95%.

B1: chimeric HIR Ab (human insulin receptor antibody) (antibody, human IgG1, kappa, V domains shown)
VH: QVQLQQSGPELVKPGALVKISCKASGYTFTNYDIHWVKQRPGQGLEWIGWIYPGDGSTKYNEKFKGKATLTADKSSSTAYMHLSSLTSEKSAVYFCAREWAYWGQGTLVTVSA
VL: DIQMTQSPSSLSASLGERVSLTCRASQDIGGNLYWLQQGPDGTIKRLIYATSSLDSGVPKRFSGSRSGSDYSLTISSLESEDFVDYYCLQYSSSPWTFGGGTKMEIKR
notes: Chimeric antibody against the extracellular domain of the human insulin receptor; human IgG1/kappa constant regions; also called HIRMAb; HIR MAb
With B1, the EC50 in assay [2] was found to be 0.037 mg/L.

What is called EC50 is the midpoint of the concentration-response curve.
